Columns and labels:
[1] = biological target: β2 adrenergic receptor, the receptor part of the β2AR-Spep SPASM sensor (UniProt P07550); assay: FRET or BRET; stopped-flow decay of the FRET ratio (mCit/mCer) of the β2AR-Spep SPASM sensor in native HEK293T membranes, preincubated with 100 µM isoproterenol and quenched with 10 µM Nb6B9; FRET buffer; triple exponential fit with one decay constrained to the decay without Nb6B9; both partners on one chain
[2] = biological target: β2 adrenergic receptor, the receptor part of the β2AR-Spep SPASM sensor (UniProt P07550); assay: FRET or BRET; steady-state ΔFRET of the β2AR-Spep SPASM sensor in native HEK293T membranes; 100 µM clenbuterol with 30 µM soluble Qpep (Gαq peptide), 5 min, 25 °C, FRET buffer; both partners on one chain
[3] = biological target: β2 adrenergic receptor, the receptor part of the β2AR-Spep SPASM sensor (UniProt P07550); assay: FRET or BRET; steady-state ΔFRET of the β2AR-Spep SPASM sensor in native HEK293T membranes; 100 µM isoproterenol with 30 µM soluble Qpep (Gαq peptide), 5 min, 25 °C, FRET buffer; both partners on one chain
[4] = biological target: β2 adrenergic receptor, the receptor part of the β2AR-Spep SPASM sensor (UniProt P07550); assay: FRET or BRET; steady-state ΔFRET of the β2AR-Spep SPASM sensor in native HEK293T membranes; 100 µM clenbuterol (partial agonist) against buffer, 5 min, 25 °C, FRET buffer; both partners on one chain
[5] = biological target: N-terminally biotinylated Gαs-peptide (bio-Spep); assay: pull-down; affinity sequestration: β2AR-mCer native membranes with 100 µM isoproterenol and 30 µM bio-Spep, 5 min at room temperature, then streptavidin Dynabeads for 5 min; fraction bound = 1 - fraction of mCerulean counts in the supernatant; FRET buffer + 0.1 mg/mL BSA
[6] = biological target: N-terminally biotinylated Gαs-peptide (bio-Spep); assay: pull-down; affinity sequestration as above, with 10 µM Qpep (Gαq peptide) added to the 30 µM bio-Spep; 100 µM isoproterenol; streptavidin Dynabeads; FRET buffer + 0.1 mg/mL BSA

Substance | koff, strong interaction state (slow decay) [1] [s⁻¹] | koff, weak interaction state (fast decay) [1] [s⁻¹] | fold increase of the interaction (ΔFRET) with Qpep against without, clenbuterol [2] [fold] | fold increase of the interaction (ΔFRET) with Qpep against without, isoproterenol [3] [fold] | fold weaker interaction (ΔFRET) with clenbuterol than with isoproterenol [4] [fold] | fraction of receptor bound [5] [%] | fraction of receptor bound, with 10 µM Qpep [6] [%]
Gαs-peptide (Spep), the 27 amino acid Gα C-terminal peptide of the β2AR-Spep SPASM sensor | 0.006 | 0.3 | 5 | 2 | 6 | – | –
β2AR-mCerulean (from UniProt P07550 1-413) (receptor) | – | – | – | – | – | 5 | 17
